The values that follow come from CN114989293A (UNIV CHONGQING MEDICAL; FENG YULIN, dated 2022).

B1: 单抗15-CQTS080 (antibody, V domains shown)
VH: QVTLRESGPALVRPTQTLTLTCTFAGFSLRTHGMCVSWIRQPPGKALEWLARIDWDGDKYYSTSLKTRLTISKDTSKDQVVLTMTNMDPVDTATYYCARFLVGGFKAWFDPWGQGTLVTVSS
VL: QSVLTQPPSVSAAPGQKVTISCSGSSSNIGNNYVSWYQQLPGIAPELLIYDNNKRPSGIPGRFSGSRSGTSATLDITGLQTGDEADYYCGTWDTSLNVWVFGGGTKLTVL
B2: 单抗14-CQTS079 (antibody, V domains shown)
VH: EVQLVESGGGLIQPGGSLRLSCAASGFTVSSNYMSWVRQAPGKGLEWVSVIYSGDNTYYADSVKGRFTISRDNSKNTLYLQMNSLRAEDTAVYYCAKMLWLRGWFDPWGQGTLVTVSS
VL: NFMLTQPHSVSESPGKTVTISCTRSSGSIASNYVQWYQQRPGSAPTTVIYEDNQRPSGVPDRFSGSIDSSSDSASLTISGLKTEDEADYYCQSYDTSNHWVFGGGTKLTVL
B3: 单抗13-CQTS078 (antibody, V domains shown)
VH: QVQLVQSGAEVKKPGASVRVSCKASGDTFSSHYIHWVRQAPGQGLEWMGIINPSGGSTSYAQKFQGRVTMTSDTSTSTVYLELSSLRSEDTAVYYCARDQAFIVATLGPDYWGQGILVTVSS
VL: QTVVTQEPSFSVSPGGTVTLTCGLSSGSVSTSYYASWYQQTPGQAPRTLIYSTNTRSSGVPDRFSGSILGNKAALTITGAQADDESDYYCVLYMGSGIWVFGGGTKLTVL
B4: 单抗18-CQTS083 (antibody, V domains shown)
VH: EVQLVESGGGLVQPGGSLRLSCAASGLTVSSNYMSWVRQAPGKGLEWVSLIYSGGSTYYADSVKGRFTISRHNSKNTLYLQMNSLRAEDTAVYYCARDLEERGAMDVWGQGTTVTVSS
VL: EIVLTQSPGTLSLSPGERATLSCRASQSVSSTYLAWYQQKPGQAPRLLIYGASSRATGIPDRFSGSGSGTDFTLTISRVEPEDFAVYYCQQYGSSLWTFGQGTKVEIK
B5: 单抗12-CQTS077 (antibody, V domains shown)
VH: EVQLVESGGGVVQPGGSLRLSCAASGFTFDDYAMNWVRQAPGKGLEWVSLISGDGDSPSYSGSVKGRFTISRDNSKNSLYLQMISLRTEDTALYYCARESPKLTGYFDYWGQGTLVTVSS
VL: SYVLTQPPSVSVAPGQTAGITCGGDDIGSKNVHWYQQKPGQAPVLVVYDDHDRPSGIPERFSGSNSGNTATLTISRVEAGDEADYYCQVWDSSSDPYVFGTGTKVTVL
B6: 单抗17-CQTS082 (antibody, V domains shown)
VH: EVQLVQSGAEVKKPGESLKISCKGSGYSFSTYWIGWVRQMPGKGLEWMGIIYPYDSDTRYSPSFQGQVTISADKSISTAYLQWSSLKASDTAIYYCARQESGWSFDYWGQGTLVTVSS
VL: DIQMTQSPSSLSASVGDRVTITCRASQNINKYLNWYQQKPGKAPKLLIYVASSLQSGVPSRFSGSGSGTDFTLTISSLQPEDFATYYCQQSYSTPRTFGQGTKVEIK
B7: 单抗19-CQTS086 (antibody, V domains shown)
VH: EVQLVESGGGLVQPGGSLRLSCAASGITVNSNYMSWVRQAPGKGLEWVSVIYNGVTTYYADSVKGRFTISRDISKNTVYLQMNSLRAEDTAVYYCARAGWLRGRFDPWGQGTLVIVSS
VL: SYVLTQPPSVSVAPGQTASITCGGSNIGSKNVHWYQQKSGQAPVLVVYDDSDRPSGIPERFSGSNSGNTATLIINRVEAGDEADYYCQVWDSTTDLPHWVFGGGTKLTVL

The target in the assay is 新冠病毒(SARS-CoV-2) S蛋白受体结合域 RBD (SARS-CoV-2, UniProt P0DTC2 319-541). Description: ELISA, antigen coated at 2 μg/mL, 293T supernatant, anti-human IgG-ALP detection.
With B1, the binding result was “binds”. With B2 the entry was “binds”; with B3, “binds”; with B4, “binds”.

As to B5, the binding result is on record as “binds”.

B6: the binding result is recorded as “binds”. B7: the binding result is given as “binds”.
